Measurements reported in patent publication EP1098979B1 (Boehringer Ingelheim International GmbH, dated 2007).

T1: recombinant membrane-bound human FAP solubilised in detergent extracts of transfected cells (293FAP 1/2, … (human, UniProt Q12884 1-760))
T1 construct: Same protein as m5, but isolated from the cells; also called recombinant human FAP
T1 sequence (looked up): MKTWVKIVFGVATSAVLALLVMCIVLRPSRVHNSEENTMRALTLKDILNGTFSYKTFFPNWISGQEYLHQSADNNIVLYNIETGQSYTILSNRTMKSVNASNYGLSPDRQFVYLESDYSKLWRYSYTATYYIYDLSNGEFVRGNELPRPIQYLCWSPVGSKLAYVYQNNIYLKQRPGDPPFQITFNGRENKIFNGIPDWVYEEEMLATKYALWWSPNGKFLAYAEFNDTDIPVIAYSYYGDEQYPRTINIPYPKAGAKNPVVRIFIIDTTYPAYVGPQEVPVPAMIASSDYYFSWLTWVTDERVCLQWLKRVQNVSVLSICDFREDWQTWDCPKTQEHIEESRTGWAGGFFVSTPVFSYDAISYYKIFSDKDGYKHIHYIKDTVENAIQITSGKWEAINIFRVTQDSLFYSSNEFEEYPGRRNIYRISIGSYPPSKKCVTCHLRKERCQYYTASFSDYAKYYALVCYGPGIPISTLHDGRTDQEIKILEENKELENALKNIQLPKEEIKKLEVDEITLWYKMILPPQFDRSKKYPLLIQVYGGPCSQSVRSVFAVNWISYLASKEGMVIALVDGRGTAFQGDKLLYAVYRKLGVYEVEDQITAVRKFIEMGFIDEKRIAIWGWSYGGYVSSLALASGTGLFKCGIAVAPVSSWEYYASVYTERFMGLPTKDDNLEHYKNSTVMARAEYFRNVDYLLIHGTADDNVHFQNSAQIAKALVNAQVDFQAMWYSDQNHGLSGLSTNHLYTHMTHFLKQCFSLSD


How the values were obtained:
[1] = biological target: human fibroblast activation protein alpha (FAP) on the cell surface (human) (UniProt Q12884); experiment: flow cytometry, MF-SH cells with endogenous FAP, antibody at 4000 ng/ml
[2] = biological target: human fibroblast activation protein alpha (FAP) on the cell surface (human) (UniProt Q12884); experiment: flow cytometry, HT-1080FAP clone 33 cells, antibody at 0.8 ng/ml, FITC anti-human IgG
[3] = biological target: human fibroblast activation protein alpha (FAP) on the cell surface (human) (UniProt Q12884); experiment: flow cytometry, HT-1080FAP clone 33 cells, antibody at 4.0 ng/ml, FITC anti-human IgG
[4] = biological target: human fibroblast activation protein alpha (FAP) on the cell surface (human) (UniProt Q12884); experiment: flow cytometry, HT-1080FAP clone 33 cells, antibody at 20.0 ng/ml, FITC anti-human IgG
[5] = biological target: human fibroblast activation protein alpha (FAP) on the cell surface (human) (UniProt Q12884); experiment: flow cytometry, HT-1080FAP clone 33 cells, antibody at 100.0 ng/ml, FITC anti-human IgG
[6] = biological target: human fibroblast activation protein alpha (FAP) on the cell surface (human) (UniProt Q12884); experiment: flow cytometry, HT-1080FAP clone 33 cells, antibody at 500.0 ng/ml, FITC anti-human IgG
[7] = biological target: human fibroblast activation protein alpha (FAP) on the cell surface (human) (UniProt Q12884); experiment: flow cytometry, HT-1080FAP clone 33 cells, biotinylated antibody at 1.6 ng/ml, streptavidin-FITC
[8] = biological target: human fibroblast activation protein alpha (FAP) on the cell surface (human) (UniProt Q12884); experiment: flow cytometry, HT-1080FAP clone 33 cells, biotinylated antibody at 8.0 ng/ml, streptavidin-FITC
[9] = biological target: human fibroblast activation protein alpha (FAP) on the cell surface (human) (UniProt Q12884); experiment: flow cytometry, HT-1080FAP clone 33 cells, biotinylated antibody at 40.0 ng/ml, streptavidin-FITC
[10] = biological target: human fibroblast activation protein alpha (FAP) on the cell surface (human) (UniProt Q12884); experiment: flow cytometry, HT-1080FAP clone 33 cells, biotinylated antibody at 200.0 ng/ml, streptavidin-FITC
[11] = biological target: human fibroblast activation protein alpha (FAP) on the cell surface (human) (UniProt Q12884); experiment: flow cytometry, HT-1080FAP clone 33 cells, biotinylated antibody at 1,000.0 ng/ml, streptavidin-FITC
[12] = biological target: human fibroblast activation protein alpha (FAP) on the cell surface (human) (UniProt Q12884); experiment: flow cytometry, HT-1080FAP clone 33 cells, biotinylated antibody at 5,000.0 ng/ml, streptavidin-FITC
[13] = biological target: human fibroblast activation protein alpha (FAP) on the cell surface (human) (UniProt Q12884); experiment: competition flow cytometry, HT-1080FAP clone 33 cells, unlabelled competitor at 1.00 µg/ml against 1 µg/ml biotinylated cF19; signal of bound biotinylated cF19
[14] = biological target: human fibroblast activation protein alpha (FAP) on the cell surface (human) (UniProt Q12884); experiment: competition flow cytometry, HT-1080FAP clone 33 cells, unlabelled competitor at 3.16 µg/ml against 1 µg/ml biotinylated cF19; signal of bound biotinylated cF19
[15] = biological target: human fibroblast activation protein alpha (FAP) on the cell surface (human) (UniProt Q12884); experiment: competition flow cytometry, HT-1080FAP clone 33 cells, unlabelled competitor at 10.00 µg/ml against 1 µg/ml biotinylated cF19; signal of bound biotinylated cF19
[16] = biological target: human fibroblast activation protein alpha (FAP) on the cell surface (human) (UniProt Q12884); experiment: competition flow cytometry, HT-1080FAP clone 33 cells, unlabelled competitor at 31.66 µg/ml against 1 µg/ml biotinylated cF19; signal of bound biotinylated cF19
[17] = biological target: T1, recombinant membrane-bound human FAP …; experiment: sandwich ELISA, detergent extract of 293FAP 1/2 cells on cF19-coated plates, HRP-streptavidin
[18] = biological target: T1, recombinant membrane-bound human FAP …; experiment: sandwich ELISA, cF19 as capture antibody
[19] = biological target: human fibroblast activation protein alpha (FAP) on the cell surface (human) (UniProt Q12884); experiment: flow cytometry, MF-SH cells with endogenous FAP, antibody at 500 ng/ml
[20] = biological target: human fibroblast activation protein alpha (FAP) on the cell surface (human) (UniProt Q12884); experiment: flow cytometry, MF-SH cells with endogenous FAP, antibody at 1000 ng/ml
[21] = biological target: human fibroblast activation protein alpha (FAP) on the cell surface (human) (UniProt Q12884); experiment: flow cytometry, MF-SH cells with endogenous FAP, antibody at 2000 ng/ml
[22] = biological target: human fibroblast activation protein alpha (FAP) on the cell surface (human) (UniProt Q12884); experiment: flow cytometry, HT-1080FAP clone 33 cells, 1 µg/ml biotinylated cF19 without competitor (0.00 µg/ml)

Row | Mean fluorescence intensity [1] | Mean fluorescence intensity [2] | Mean fluorescence intensity [3] | Mean fluorescence intensity [4] | Mean fluorescence intensity [5] | Mean fluorescence intensity [6] | Mean fluorescence intensity [7] | Mean fluorescence intensity [8] | Mean fluorescence intensity [9] | Mean fluorescence intensity [10] | Mean fluorescence intensity [11] | Mean fluorescence intensity [12] | Mean fluorescence concentration [13] | Mean fluorescence concentration [14] | Mean fluorescence concentration [15] | Mean fluorescence concentration [16] | Molecule | further results
1 | 0.6 | 0.12 | 0.12 | 0.12 | 0.12 | 0.12 | 0.3 | 0.2 | 0.2 | 0.2 | 0.2 | 0.2 | 9 | 11.3 | 9.8 | 10.3 | hIgG1 (human immunoglobulin, IgG1 subclass), negative control (antibody) | 
2 |  |  |  |  |  |  |  |  |  |  |  |  |  |  |  |  | LAHC (reshaped human anti-human FAP monoclonal antibody: F19 human reshaped light chain variable region version A with heavy chain variable region version C, … (antibody, V domains shown, The name joins light version A (LA) and heavy version C (HC); also called biotinylated LAHC; BIBH 1) VH: QVQLVQSGAEVKKPGASVKVSCKTSRYTFTEYTIHWVRQAPGQRLEWIGGINPNNGIPNYNQKFKGRVTITVDTSASTAYMELSSLRSEDTAVYYCARRRIAYGYDEGHAMDYWGQGTLVTVSS VL: DIVMTQSPDSLAVSLGERATINCKSSQSLLYSRNQKNYLAWYQQKPGQPPKLLIFWASTRESGVPDRFSGSGFGTDFTLTISSLQAEDVAVYYCQQYFSYPLTFGQGTKVEIKR | binding result [17]: binds
3 | 3.6 | 0.14 | 0.17 | 0.43 | 1.63 | 6.65 | 0.3 | 0.5 | 1.3 | 4.5 | 18.1 | 36.5 | 7.5 | 4.8 | 1.3 | 1.2 | chimeric F19 antibody (cF19), mouse F19 variable regions joined to human kappa and gamma-1 constant regions (antibody, human IgG1, kappa, V domains shown, Biotinylated in some assays; also called biotinylated cF19) VH: VQLQQSGPELVKPGASVKMSCKTSRYTFTEYTIHWVRQSHGKSLEWIGGINPNNGIPNYNQKFKGRATLTVGKSSSTAYMELRSLTSEDSAVYFCARRRIAYGYDEGHAMDYWGQGTSVTVSS VL: DIVMSQSPSSLAVSVGEKVTMSCKSSQSLLYSRNQKNYLAWFQQKPGQSPKLLIFWASTRESGVPDRFTGSGFGTDFNLTISSVQAEDLAVYDCQQYFSYPLTFGAGTKLELKR | binding result [18]: binds; Mean fluorescence intensity [19]: 1.8; Mean fluorescence intensity [20]: 2.4; Mean fluorescence intensity [21]: 3.3; Mean fluorescence concentration [22]: 11.2
